Here are results for 1 molecule from patent US20060008875A1 (UNIVERSITAIR MEDISCH CENTRUM ROTTERDAM, published 2006).

In the experiment the target is T1, replication/repair factor RPA1 (human, UniProt P27694 1-616).
T1 construct: Endogenous protein in extracts of human TTD-A fibroblasts
The experiment can be described thus: anti-HA immunoprecipitation from extracts of TTD-A fibroblasts expressing p8-HA, immunoblot. From the text:
We cloned the human TFB5 cDNA from primary fibroblasts by virtue of its homology with yeast TFB5 using conventional techniques known in the art. An HA-tagged version of hTFB5 (p8-HA) was constructed via conventional molecular cloning methods (Maniatis et al, supra) and expressed in TTD-A fibroblasts and subsequently used for immuno-precipitations with anti-HA (FIG. 1a). Both the XPB core TFIIH and the associated CAK component (CDK7) were co-precipitated with p8-HA, in contrast to replication/repair factor RPA1 (data not shown). Conversely, anti-p44 (another core-TFIIH component) co-precipitated p8-HA. We conclude that, analogous to yeast, this small polypeptide is associated with TFIIH in mammalian cells.
Immunoprecipitation and immunoblot analysis. Whole cell extracts from MRC5SV, TTD1BRSV and TTD1BRSV+hTFB5HA were prepared by isolating cells from 6 petri dishes per cell line (13 cm). Collected cell-pellets were washed once in PBS prior to lysis by douncing (20 strokes using a 12.61 mm dounce homogenizer, Bellco Glass, INC., USA) in 2 ml of buffer A (50 mM Tris pH 7.9; 150 mM NaCl; 20% Glycerol; 0.1% NP40; 5 mM β-mercaptoethanol) supplemented with anti-proteases. […]
A general note: A western blot detects proteins with antibodies after separation by electrophoresis.

T1 sequence (P27694 whole entry): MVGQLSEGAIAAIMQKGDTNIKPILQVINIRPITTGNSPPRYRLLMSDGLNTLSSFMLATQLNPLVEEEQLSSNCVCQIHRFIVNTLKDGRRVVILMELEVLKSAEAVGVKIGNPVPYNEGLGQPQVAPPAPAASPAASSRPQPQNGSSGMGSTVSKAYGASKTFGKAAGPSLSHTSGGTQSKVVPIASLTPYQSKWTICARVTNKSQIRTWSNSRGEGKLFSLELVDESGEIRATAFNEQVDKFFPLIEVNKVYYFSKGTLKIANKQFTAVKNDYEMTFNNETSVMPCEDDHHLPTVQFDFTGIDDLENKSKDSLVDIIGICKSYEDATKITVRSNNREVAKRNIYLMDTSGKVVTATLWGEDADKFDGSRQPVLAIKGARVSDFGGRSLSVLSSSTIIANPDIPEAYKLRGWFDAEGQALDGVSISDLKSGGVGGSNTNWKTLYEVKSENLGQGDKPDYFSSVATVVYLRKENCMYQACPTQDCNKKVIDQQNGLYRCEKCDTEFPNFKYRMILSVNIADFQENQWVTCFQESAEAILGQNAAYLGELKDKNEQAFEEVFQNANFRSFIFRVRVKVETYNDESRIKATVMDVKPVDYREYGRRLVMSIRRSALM

B1: HA-tagged version of hTFB5 (p8-HA) (other)
chain: MVNVLKGVLIECDPAMKQFLLYLDESNALGKKFIIQDIDDTHVFVIAELVNVLQERVGELMDQNAFSLTQK
notes: C-terminally HA-tagged TTDA cloned in pCDNA3 and expressed in TTD1BRSV (TTD-A) fibroblasts; tested in whole cell extracts; also called TTDA-HA; hTFB5HA; not shown: C-terminal HA tag
B1: the binding result is reported as “no binding”.
